From paper PMC4624963, “Enzymatic Characterization of Recombinant Food Vacuole Plasmepsin 4 from the Rodent Malaria Parasite Plasmodium berghei” (PLoS ONE, 2015) come the findings set out here.

Where no end group is shown, it is not given here. [ ]: non-standard residue; d: D form. Nle = CCCC[C@H](N)C(=O)O Bounds are passed on as bounds.

Holding throughout (conditions): both partners purified
Test [1] addresses T1, mature plasmepsin 4 of Plasmodium berghei (PbPM4), auto-matured from semi-proPbPM4 (Plasmodium berghei ANKA).
T1 construct: also called mature PbPM4; FV plasmepsin 4; source: converted to mature enzyme by 5 min pre-incubation in sodium citrate pH 5.0 at 37°C
Description: enzyme inhibition kinetics (Ki of competitive inhibition); initial cleavage velocities of a chromogenic peptide substrate at varied inhibitor concentration, spectrophotometric; proPbPM4 pre-incubated in 100 mM sodium citrate pH 5.0, 37°C, 5 min; tight-binding or non-tight-binding competitive fit.

The target of test [2] is T2, plasmepsin 2 from Plasmodium falciparum (Plasmodium falciparum, UniProt P46925 125-453).
T2 construct: also called PfPM2; source: zymogen converted to mature enzyme at pH 4.5, 37°C, 5 min
Description: enzyme inhibition kinetics (Ki of competitive inhibition); initial cleavage velocities of a chromogenic peptide substrate at varied inhibitor concentration; plasmepsins pre-incubated in 100 mM sodium formate pH 4.5, 37°C, 5 min to convert zymogen to mature enzyme.

Test [3] deals with T3, plasmepsin 4 from Plasmodium falciparum (Plasmodium falciparum, UniProt Q8IM16 122-449).
T3 construct: also called PfPM4; source: zymogen converted to mature enzyme at pH 4.5, 37°C, 5 min
The description is as above.

For test [4], the target named is T4, plasmepsin 1 from Plasmodium falciparum (Plasmodium falciparum, UniProt P39898 124-452).
T4 construct: also called PfPM1
As to the kind of experiment: enzyme inhibition kinetics (Ki of competitive inhibition); initial cleavage velocities of a chromogenic peptide substrate at varied inhibitor concentration; mature PfPM1 pre-incubated in 100 mM sodium citrate pH 5.5, 37°C, 3 min.

In turn, KP[Nle]S[Nle]LQI (also: reduced amide Ψ[CH2-NH] between Nle5 and Leu6) [compound 3 (KPnLSnLΨLQI), peptidomimetic inhibitor designed for PfPM2] displayed a Ki in test [1] of 375 ± 54 nM.

B1: compound 1 (KPYEFΨRQF), peptidomimetic inhibitor designed for PbPM4 (peptide)
peptide: KPYEFRQF
modifications: not fully specified (residue 5); printed as KPYEFΨRQF; also: Ψ pseudo-peptide bond between F5 and R6
notes: source: synthetic peptide
Regarding B1, the inhibition constant (Ki) in test [2] was 35000 nM; in test [3], 190 ± 19 nM; in test [4] it was greater than 100000 nM.

The term Ki denotes a dissociation constant, usually derived from enzyme kinetics or from competition with a known ligand. High values mean weaker binding, low ones tighter binding.
